The target of assay [1] is T1, purified HLA-B*0702 (human).
T1 construct: Purified MHC class I molecule incubated with human b2m; complexes captured with W6/32 antibody; also called HLA-B7; immobilized purified HLA-B7 molecule
Nature of the assay: competition solid-phase radioimmunoassay on purified HLA-B7, radiolabeled standard peptide. The text has this:
Next, we assessed the actual binding avidity for HLA-B7 (HLA-B*0702). Two independent assays were used: binding stabilization assay on T2-B7 cells by flow cytometry (12) and a competitive solid-phase radioimmunoassay on immobilized purified HLA-B7 molecule (35).

Assay [2] addresses T1, purified HLA-B*0702. Nature of the assay: competition radioimmunoassay on purified HLA, radiolabeled standard peptide.
Excerpt: (§1) Supertype analysis. […] Under the conditions utilized, where [label]<[MHC] and IC₅₀≧[MHC], the measured IC₅₀ values are reasonable approximations of the true Kd values.
Assay [3] addresses T2, purified HLA-B*5401 (human).
T2 construct: Purified MHC class I molecule incubated with human b2m; also called B*54011
The description is as above.
Excerpt: as §1

For assay [4], the target named is T3, purified HLA-B*0801 (human).
T3 construct: Purified MHC class I molecule incubated with human b2m; not officially part of the HLA-B7 supertype
Described as above.
Excerpt: as §1

Assay [5] has as its target T4, purified HLA-B*3501 (human).
T4 construct: Purified MHC class I molecule incubated with human b2m
The description is as above.
Excerpt: as §1

The target in assay [6] is T5, purified HLA-B*5301 (human).
T5 construct: Purified MHC class I molecule incubated with human b2m
The assay is described as above.
Excerpt: as §1

Assay [7] deals with T6, purified HLA-B*5101 (human).
T6 construct: Purified MHC class I molecule incubated with human b2m
The description is as above.
Excerpt: as §1

B1: hTRT peptide p464 (FVRACLRRL) (peptide)
peptide: FVRACLRRL
notes: Synthetic 9mer peptide of human telomerase reverse transcriptase
On to B1, for which the IC50 – broadly, the concentration that gives 50% inhibition – in assay [1] was 4.1 nM; in assay [2] it was 4.1 nM; in assay [3], 18800 nM; in assay [4], 123 nM.

B2: hTRT peptide p342 (RPSFLLSSL) (peptide)
peptide: RPSFLLSSL
notes: as for B1
For the molecule B2, in assay [3], the half-inhibitory concentration (IC50) worked out at 12600 nM. That is a double-digit micromolar value.

B3: hTRT peptide p966 (AGRNMRRKL) (peptide)
peptide: AGRNMRRKL
notes: as for B1
B3 had a 50% inhibitory concentration (IC50) in assay [3] of 34100 nM.

B4: hTRT peptide p1123 (LPSDFKTIL) (peptide)
peptide: LPSDFKTIL
notes: as for B1
B4: the half-maximal inhibitory concentration (IC50) in assay [1] was 11 nM; in assay [2], 11 nM; in assay [3], 19900 nM; in assay [4] it was 74 nM; in assay [5], 5 nM; in assay [6] it was 2.4 nM. Further, in assay [7], the 50% inhibitory concentration (IC50) was determined as 1620 nM.

B5: hTRT peptide p444 (DPRRLVQLL) (peptide)
peptide: DPRRLVQLL
notes: as for B1
Regarding B5, the IC50 in assay [3] came out at 21900 nM.

B6: hTRT peptide p1107 (LPGTTLTAL) (peptide)
peptide: LPGTTLTAL
notes: as for B1
With B6, the half-inhibitory concentration (IC50) was found to be 0.96 nM in assay [1], 0.96 nM in assay [2], 192 nM in assay [4] and 120 nM in assay [6].

The values above are taken from patent publication US20090202499A1 (University of California, published 2009).
